Measurements reported in patent publication US20230221313A1.

Molecular target: HIV-1 BG505.W6M.Env.C2 pseudovirus (Env) (HIV-1)
Experiment: cell-based or functional assay

Substance	Fold change GFP-/GFP+ (droplet neutralization, NGS reads), Round 1
VRC34 (antibody)	1.78
anti-HIV antibody VRC01	1.08
